Results reported in patent CN115141270A (SHENZHEN KANGMAI BIOTECHNOLOGY CO LTD, dated 2022).

Assays:
[1] = biological target: T1, SARS-CoV-2 RBD结构域蛋白 (序列来自NC_045512.2, 自行表达) (SARS-CoV-2, UniProt P0DTC2 319-541); assay: ELISA, RBD domain protein coated at 2 μg/ml, antibody titrated from 10 μg/mL
T1 construct: domain: RBD

[2] = biological target: SARS-CoV-2 (中国新型冠状病毒, MT226610) live virus, spike glycoprotein (SARS-CoV-2); assay: cell-based or functional assay
[3] = biological target: T2, SARS-CoV-2 S蛋白(ECD) (购自金斯瑞, Z03481) (SARS-CoV-2, UniProt P0DTC2 14-1213); assay: ELISA, S protein (ECD) coated at 2 μg/ml, antibody titrated from 10 μg/mL
T2 construct: extracellular domain

[4] = biological target: T2, SARS-CoV-2 S蛋白(ECD) (购自金斯瑞, Z03481)

B1: 抗体nCoV617 (anti-coronavirus spike glycoprotein human monoclonal antibody) (antibody, V domains shown)
VH: QVQLVESGGGVVQPGRSLRLSCAASGFTFSSYAMHWVRQAPGKGLEWVALISYDGSNKYYADSVKGRFTISRDNSKNTLYLQMNSLRAEDTAVYYCARGLGLRFLEWPISSYWGQGTLVTVSS
VL: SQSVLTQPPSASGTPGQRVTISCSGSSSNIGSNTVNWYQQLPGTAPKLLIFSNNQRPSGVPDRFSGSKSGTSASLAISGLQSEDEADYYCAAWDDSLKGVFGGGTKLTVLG
notes: also called 抗S蛋白抗体; 抗冠状病毒刺突糖蛋白单克隆抗体
[1]
  EC50: 3 ng/mL
[2]
  IC50 (neutralisation of live virus on Vero E6 cells, cytopathic effect): 2.3 ng/mL
[3]
  EC50: 2 ng/mL
[4]
  Kd: 8.02 nM
